Data from US20080199514A1 (BURNHAM INSTITUTE, published 2008).

Target: T1, Lck phosphopeptide (ARLIEDNEpYTAAREG)
T1 chain: ARLIEDNEYTAAREG

B1: full length Hemagglutinin (HA) tagged LYP having W620 (protein)
chain: MDQREILQKFLDEAQSKKITKEEFANEFLKLKRQSTKYKADKTYPTTVAEKPKNIKKNRYKDILPYDYSRVELSLITSDEDSSYINANFIKGVYGPKAYIATQGPLSTTLLDFWRMIWEYSVLIIVMACMEYEMGKKKCERYWAEPGEMQLEFGPFSVSCEAEKRKSDYIIRTLKVKFNSETRTIYQFHYKNWPDHDVPSSIDPILELIWDVRCYQEDDSVPICIHCSAGCGRTGVICAIDYTWMLLKDGIIPENFSVFSLIREMRTQRPSLVQTQEQYELVYNAVLELFKRQMDVIRDKHSGTESQAKHCIPEKNHTLQADSYSPNLPKSTTKAAKMMNQQRTKMEIKESSSFDFRTSEISAKEELVLHPAKSSTSFDFLELNYSFDKNADTTMKWQTKAFPIVGEPLQKHQSLDLGSLLFEGCSNSKPVNAAGRYFNSKVPITRTKSTPFELIQQRETKEVDSKENFSYLESQPHDSCFVEMQAQKVMHVSSAELNYSLPYDSKHQIRNASNVKHHDSSALGVYSYIPLVENPYFSSWPPSGTSSKMSLDLPEKQDGTVFPSSLLPTSSTSLFSYYNSHDSLSLNSPTNISSLLNQESAVLATAPRIDDEIPPPLPVWTPESFIVVEEAGEFSPNVPKSLSSAVKVKIGTSLEWGGTSEPKKFDDSVILRPSKSVKLRSPKSELHQDRSSPPPPLPERTLESFFLADEDCMQAQSIETYSTSYPDTMENSTSSKQTLKTPGKSFTRSKSLKILRNMKKSICNSCPPNKPAESVQSNNSSSFLNFGFANRFSKPKGPRNPPPTWNI
B1 was tested, and the “Dephosphorylation of an Lck phosphopeptide by immunoprecipitated HA-tagged LYP; specific activity relative to LYP*R620” value was “LYP*W620 displayed a 57.2% (±9.8%, n=5) higher specific activity when corrected for amount of protein”.
